Target: the molecule itself
Test: SEC

B1: unphosphorylated kinase domain of With No Lysine(K) kinase-3 (WNK3) (domain or fragment)
chain: not shown
For B1, the “stoichiometry N” value was 2.
